# Laboratory results: paper PMC3205837
# B1: DHFR promoter E2F site, wild type (dsDNA)
# DNA 1: AGCTTCTAGTGCAATTTCGCGCCAAACTTGG
# DNA 2: AATTCCAAGTTTGGCGCGAAATTGCACTAGA
# Experiments:
# Assay in all cases: EMSA
# GST-N-γtubulin1-333 = GST-N-γtubulin1-333 (human, UniProt P23258 1-333)
# GST-γ-tubulin = GST-γ-tubulin (human, UniProt P23258 1-451)
# GST-γ-tubulin;His-E2F1 = GST-γ-tubulin;His-E2F1 (human;human, UniProt P23258;Q01094 1-451;1-437, |)
# Sequence of GST-γ-tubulin;His-E2F1 (P23258 whole entry, chain 1 of 2): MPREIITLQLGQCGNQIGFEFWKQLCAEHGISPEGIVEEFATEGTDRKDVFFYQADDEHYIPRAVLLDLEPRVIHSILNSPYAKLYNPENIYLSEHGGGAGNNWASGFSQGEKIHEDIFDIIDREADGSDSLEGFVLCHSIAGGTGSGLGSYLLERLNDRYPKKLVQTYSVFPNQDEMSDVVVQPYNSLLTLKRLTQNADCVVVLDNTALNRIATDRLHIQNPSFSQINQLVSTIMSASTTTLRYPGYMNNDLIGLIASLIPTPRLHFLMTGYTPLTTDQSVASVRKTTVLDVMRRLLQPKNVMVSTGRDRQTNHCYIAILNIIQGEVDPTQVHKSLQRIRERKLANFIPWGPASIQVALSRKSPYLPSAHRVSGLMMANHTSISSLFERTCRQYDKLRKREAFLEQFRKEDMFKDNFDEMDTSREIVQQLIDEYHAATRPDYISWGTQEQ
# Sequence of GST-γ-tubulin;His-E2F1 (Q01094 whole entry, chain 2 of 2): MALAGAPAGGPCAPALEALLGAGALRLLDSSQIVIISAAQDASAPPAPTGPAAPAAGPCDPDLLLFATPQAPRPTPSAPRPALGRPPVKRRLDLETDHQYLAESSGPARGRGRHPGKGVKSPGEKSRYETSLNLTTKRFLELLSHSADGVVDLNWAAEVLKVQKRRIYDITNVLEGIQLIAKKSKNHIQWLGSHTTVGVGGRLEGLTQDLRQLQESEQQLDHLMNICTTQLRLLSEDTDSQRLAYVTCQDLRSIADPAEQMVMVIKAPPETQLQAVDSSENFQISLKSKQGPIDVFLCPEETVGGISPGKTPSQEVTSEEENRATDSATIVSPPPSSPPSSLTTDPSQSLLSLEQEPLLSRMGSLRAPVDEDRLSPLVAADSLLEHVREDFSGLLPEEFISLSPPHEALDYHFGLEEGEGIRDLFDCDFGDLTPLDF
# Sequence of GST-N-γtubulin1-333 (P23258 1-333): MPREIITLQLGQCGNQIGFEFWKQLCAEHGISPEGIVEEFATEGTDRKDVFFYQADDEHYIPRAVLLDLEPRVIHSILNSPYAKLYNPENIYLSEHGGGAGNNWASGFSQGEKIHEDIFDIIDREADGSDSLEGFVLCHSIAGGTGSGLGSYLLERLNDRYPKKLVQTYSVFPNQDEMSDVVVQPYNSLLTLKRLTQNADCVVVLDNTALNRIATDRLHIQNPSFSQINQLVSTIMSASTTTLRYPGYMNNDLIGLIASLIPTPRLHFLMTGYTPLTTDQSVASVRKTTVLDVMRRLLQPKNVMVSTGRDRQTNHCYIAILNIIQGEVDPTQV
# Sequence of GST-γ-tubulin (P23258 whole entry): as the sequence (P23258 whole entry, chain 1 of 2) above
binder,measurement,setting,value
B1,binding result,GST-N-γtubulin1-333,no binding
same,binding result,GST-γ-tubulin,binds
same,binding result,GST-γ-tubulin;His-E2F1,binds
